Here are results for 83 variants from the RNAGym collection of RNA variant scans (doi:10.1093/molbev/msab373).

B1: Azoarcus group I ribozyme (parent)
chain: GUGCCUUGCGCCGGGAAACCACGCAAGGGAUGGUGUCAAAUUCGGCGAAACCUAAGCGCCCGCCCGGGCGUAUGGCAACGCCGAGCCAAGCUUCGGCGCCUGCGCCGAUGAAGGUGUAGAGACUAGACGGCACCCACCUAAGGCAAACGCUAUGGUGAAGGCAUAGUCCAGGGAGUGGCGAAAGUCACACAAACCGG

Variants of B1 are the subject of the data set. The data set is described as follows: reverse-splicing fitness (ratio to wild type); higher = more active; in vitro selection; Mg2+ level not given. In a few lines:
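An in vitro group I ribozyme library with randomized positions was T7-transcribed and gel-purified. In triplicate, 10 pmol RNA in EPPS pH 7.5 was reacted with 50 pmoles of a 30-nt RNA substrate for 1 h at 37 °C across several added MgCl2 levels (1–48 mM), then stopped with EDTA. Products were reverse transcribed from a substrate-complementary primer, PCR-amplified and sequenced (HiSeq 4000). Fitness is a variant's read proportion after selection over that before, normalised to wild type.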
Regarding C82G A111C A120C A145G C150A C169A U176G, the reverse-splicing fitness stood at 0.00862. Take C82G A111C A120C A145G C150A C169A U176C: the reverse-splicing fitness was 0.0188. With C82G A111C A120C A145G C150A C169A U176A, the reverse-splicing fitness stood at 0.0165. In the case of C82G A111C A120C U176G, the reverse-splicing fitness was 0.00944. For the variant C82G A111C A120C U176C, the reverse-splicing fitness was 0.0268. Take C82G A111C A120C U176A: the reverse-splicing fitness came out at 0.018. Turning to C82G A111C A120C C169U U176A, the reverse-splicing fitness came out at 0.0183. With C82G A111C A120C C169U U176C, the reverse-splicing fitness was 0.0163. The same measure for C82G A111C A120C C169U U176G: 0.00655. Regarding C82G A111C A120C C150U C169G U176C, the reverse-splicing fitness came to 0.0171. As for C82G A111C A120C C150U C169G U176A, the reverse-splicing fitness worked out at 0.0152.

Turning to C82G A111C A120C C150U C169G U176G, the reverse-splicing fitness was determined as 0.0066.

For C82G A111C A120C A145G C169G U176C, the reverse-splicing fitness was determined as 0.0253. Take C82G A111C A120C A145G C169G U176G: the reverse-splicing fitness stood at 0.00618. The same measure for C82G A111C A120C A145G C169G U176A: 0.0188; for C82G A111C A120G A145C C150G C169U: 0.00721. As to C82G A111C A120G A145C C150G C169G, the reverse-splicing fitness amounted to 0.00722. In the case of C82G A111C A120G A145C C150G C169A, the reverse-splicing fitness worked out at 0.0084.

Turning to C82G A111C A120C A145G C150G C169U, the reverse-splicing fitness amounted to 0.00874.

With C82G A111C A120C A145G C150G C169A, the reverse-splicing fitness was found to be 0.00885. With C82G A111C A120C A145G C150G C169G, the reverse-splicing fitness worked out at 0.00708.

Consider C82G A111C A120G A145C C150U C169A U176G, for which the reverse-splicing fitness was 0.00557.

C82G A111C A120G A145C C150U C169A U176C: the reverse-splicing fitness is 0.00666. Consider C82G A111C A120G A145C C150U C169A U176A, for which the reverse-splicing fitness was determined as 0.0113.

Consider C82G A111C A120C A145G C150G C169G U176C, for which the reverse-splicing fitness came out at 0.0138.

On to C82G A111C A120C A145G C150G C169G U176A, for which the reverse-splicing fitness came out at 0.0118. Next, C82G A111C A120C A145G C150G C169G U176G: 0.0062; C82G A111C A120C A145C C150A: 0.00907; C82G A111C A120C A145C C150G: 0.0093. Next, C82G A111C A120C A145C C150U: 0.0168; C82G A111C A120C A145U C150G C169G: 0.00765. The same measure for C82G A111C A120C A145U C150G C169U: 0.00897; for C82G A111C A120C A145U C150G C169A: 0.00941. As to C82G A111C A120C A145G C150A C169G U176G, the reverse-splicing fitness is 0.00768. In the case of C82G A111C A120C A145G C150A C169G U176A, the reverse-splicing fitness worked out at 0.0156. As for C82G A111C A120C A145G C150A C169G U176C, the reverse-splicing fitness was 0.0228. The same measure for C82G A111C A120C A145G C150G U176G: 0.00667. The same measure for C82G A111C A120C A145G C150G U176A: 0.00652; for C82G A111C A120C A145G C150G U176C: 0.0113; for C82A C169G U176C: 0.0234. As to C82A C169G U176G, the reverse-splicing fitness was 0.00442. Turning to C82A C169G U176A, the reverse-splicing fitness was 0.0139. In the case of C82A C150G U176G, the reverse-splicing fitness was 0.0062. The same measure for C82A C150U C169G U176C: 0.0175; for C82A C150U C169G U176G: 0.00542. With C82A C150U C169G U176A, the reverse-splicing fitness is 0.014. In the case of C82A U176G, the reverse-splicing fitness worked out at 0.12.

Consider C82A U176A, for which the reverse-splicing fitness is 0.407.

As to C82A U176C, the reverse-splicing fitness turned out to be 0.484. The same measure for C82A C169U: 0.0153; for C82A C169G: 0.00961. Take C82A C169A: the reverse-splicing fitness turned out to be 0.00967. As for C82G A111C A120G A145C C150A C169G, the reverse-splicing fitness was determined as 0.00794.

As to C82G A111C A120G A145C C150A C169A, the reverse-splicing fitness was 0.00918.

Regarding C82G A111C A120G A145C C150A C169U, the reverse-splicing fitness worked out at 0.00679.

With C82G A111C A120C A145C C169U U176G, the reverse-splicing fitness is 0.00508. As to C82G A111C A120C A145C C169U U176C, the reverse-splicing fitness turned out to be 0.0151. Next, C82G A111C A120C A145C C169U U176A: 0.0165.

On to C82G A111C A120C A145C C150G U176A, for which the reverse-splicing fitness came out at 0.00528. Take C82G A111C A120C A145C C150G U176C: the reverse-splicing fitness was determined as 0.00825. C82G A111C A120C A145C C150G U176G: the reverse-splicing fitness amounted to 0.00325. On to C82G A111C A120G A145C C150G C169U U176G, for which the reverse-splicing fitness is 0.00513.

Take C82G A111C A120G A145C C150G C169U U176A: the reverse-splicing fitness was determined as 0.00907. Regarding C82G A111C A120G A145C C150G C169U U176C, the reverse-splicing fitness worked out at 0.0124. The same measure for C82G A111C A120C A145U C169U U176C: 0.0123; for C82G A111C A120C A145U C169U U176G: 0.00641.

As to C82G A111C A120C A145U C169U U176A, the reverse-splicing fitness came to 0.0126. As to C82G A111C A120C A145U C169U, the reverse-splicing fitness worked out at 0.0143. Consider C82G A111C A120C A145U C169G, for which the reverse-splicing fitness is 0.00877.

As to C82G A111C A120C A145U C169A, the reverse-splicing fitness stood at 0.00731. Turning to C82G A111C A120C A145G C169U, the reverse-splicing fitness was 0.0139. Turning to C82G A111C A120C A145G C169G, the reverse-splicing fitness was found to be 0.00771.

With C82G A111C A120C A145G C169A, the reverse-splicing fitness is 0.00871. For C82G A111C A120C A145C U176G, the reverse-splicing fitness is 0.00711.

Turning to C82G A111C A120C A145C U176A, the reverse-splicing fitness came to 0.0166. In the case of C82G A111C A120C A145C U176C, the reverse-splicing fitness was 0.0241. C82G A111C A120G A145C: the reverse-splicing fitness was found to be 0.013. For C82A C150U, the reverse-splicing fitness turned out to be 0.367.

Regarding C82G A111C A120C C169A U176G, the reverse-splicing fitness stood at 0.0072. Take C82G A111C A120C C169A U176A: the reverse-splicing fitness turned out to be 0.0156. Turning to C82G A111C A120C C169A U176C, the reverse-splicing fitness was found to be 0.0194. The same measure for C82G A111C A120C A145U C169A U176C: 0.0142; for C82G A111C A120C A145U C169A U176G: 0.0056.
